In PMC3906829:

Target: membrane-embedded MraY from Aquifex aeolicus used for structure-guided disulfide cross-bridge experiments (Aquifex aeolicus) (UniProt O66465)
Assay: cross-linking

“membrane-embedded MraY from Aquifex aeolicus used for structure-guided disulfide cross-bridge experiments (from UniProt O66465 1-359) (enzyme)” was tested, and the stoichiometry N was 2.
